What all share (assay): cell-based or functional assay
In test [1] the target is RGD peptide target integrin (αvβ3 or αvβ5) on LN444 cells (human (LN444 human glioma cells)) (UniProt P06756).
For test [2], the target named is integrin on SK-HEP1 cells (human (cell line)).
The next test concerns the target integrin on CHO cells.

Here are results for 2 substances from patent US6921663.

Sequence of UniProt P06756 (P06756 whole entry): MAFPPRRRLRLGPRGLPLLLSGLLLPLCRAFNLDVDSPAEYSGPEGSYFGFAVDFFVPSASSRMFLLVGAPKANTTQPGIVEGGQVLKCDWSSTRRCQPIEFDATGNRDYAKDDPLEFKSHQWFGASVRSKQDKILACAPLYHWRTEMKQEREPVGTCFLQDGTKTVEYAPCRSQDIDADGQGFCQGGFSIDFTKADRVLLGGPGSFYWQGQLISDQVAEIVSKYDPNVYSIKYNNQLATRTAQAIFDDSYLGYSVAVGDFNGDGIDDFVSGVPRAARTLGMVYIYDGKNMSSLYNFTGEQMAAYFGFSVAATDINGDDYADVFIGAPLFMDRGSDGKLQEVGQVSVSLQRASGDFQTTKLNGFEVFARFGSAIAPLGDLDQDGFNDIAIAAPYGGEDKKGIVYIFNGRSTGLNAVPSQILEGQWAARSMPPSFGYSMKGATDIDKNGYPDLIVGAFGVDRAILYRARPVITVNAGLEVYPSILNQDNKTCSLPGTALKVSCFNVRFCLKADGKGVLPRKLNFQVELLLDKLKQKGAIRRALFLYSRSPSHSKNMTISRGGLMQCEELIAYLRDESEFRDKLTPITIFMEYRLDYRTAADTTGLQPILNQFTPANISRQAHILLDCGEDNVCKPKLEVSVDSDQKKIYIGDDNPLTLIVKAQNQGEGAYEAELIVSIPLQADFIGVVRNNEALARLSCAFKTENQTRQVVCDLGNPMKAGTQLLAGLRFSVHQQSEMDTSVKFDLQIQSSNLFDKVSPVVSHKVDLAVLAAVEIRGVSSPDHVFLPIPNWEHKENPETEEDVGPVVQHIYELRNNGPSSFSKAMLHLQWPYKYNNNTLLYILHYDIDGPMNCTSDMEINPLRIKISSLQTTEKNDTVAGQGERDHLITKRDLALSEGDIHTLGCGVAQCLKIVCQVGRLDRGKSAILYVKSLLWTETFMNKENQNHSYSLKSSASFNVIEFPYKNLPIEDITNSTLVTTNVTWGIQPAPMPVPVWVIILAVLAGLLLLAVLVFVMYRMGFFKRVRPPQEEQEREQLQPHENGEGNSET

The substance “AdHM15-RGD-L2 (adenovirus type 5 vector whose fiber carries the RGD-4C peptide in the HI loop; luciferase cassette) (from UniProt P11818 1-546; P11818 547-581)” registered a Luc enzyme activity after transduction of LN444 cells (CAR not expressed), against AdHM4-L2 (wild fiber) in test [1] of 1000 fold. The Luc enzyme activity after transduction of SK-HEP1 cells, against AdHM4-L2 (wild fiber) in test [2] was 10 fold.

Take “AdHM15-RGD-LacZ (adenovirus type 5 vector whose fiber carries the RGD-4C peptide in the HI loop; LacZ cassette in the E1-deleted region) (from UniProt P11818 1-546; P11818 547-581)”: the LacZ enzyme activity after transduction of CHO cells (CAR not expressed), against AdHM4-LacZ (wild fiber) in the test with integrin on CHO cells is 40 fold. Moreover, in test [2], the LacZ enzyme activity after transduction of SK-HEP1 cells, against AdHM4-LacZ (wild fiber) is 2 fold.
